Results as given in patent publication US20050228169A1 (published 2005).

Biological target: T1, GST-syntaxin-1a (1-266AA) (human, UniProt P08515 1-218 = GST; Q16623 1-266)
T1 construct: Expressed in E. coli DH5a and purified on glutathione-Sepharose; also called GST-syntaxin-1a fused protein; syntaxin-1a-GST
Experiment: GST pull-down: GST-syntaxin-1a (17 µg) on glutathione-Sepharose, 16 hours at 4° C.; Western blot with anti-penta His antibody
Protocol: KIAA1006 polypeptide (the histidine-tagged KIAA1006 polypeptide described above) and its C-terminal truncated product (the histidine-tagged C-terminal truncation product of KIAA1006 polypeptide described above) purified with a cobalt resin were respectively mixed with glutathione-Sepharose (bed volume 10 μl) to which GST (17 μg) was bound, stirred for 6 hours at 4° C., and then centrifuged. The obtained supernatants (GST-glutathione-Sepharose unadsorbed fractions) were respectively added to glutathione-Sepharose (bed volume 10 μl) to which GST-syntaxin-1a (17 μg) was bound, and after stirring for 16 hours at 4° C., the resultants were subjected to centrifugation. The fractions adsorbed to GST-glutathione-Sepharose and the fractions adsorbed to GST-syntaxin-1a-glutathione-Sepharose were eluted with SDS-PAGE sample buffer, respectively, and the binding of syntaxin-1a to KIAA1006 polypeptide or to its C-terminal truncation product was analyzed by Western blotting using anti-penta His antibody (Qiagen).
For the SDS-PAGE, 4-12% Bis-Tris Gel (NOVEX) was used. The detection of a secondary antibody that was labeled with horseradish peroxidase was carried out using ECL Western blotting detection reagents (Amersham Pharmacia Biotech).

T1 sequence (P08515 1-218, tags or fused parts left off): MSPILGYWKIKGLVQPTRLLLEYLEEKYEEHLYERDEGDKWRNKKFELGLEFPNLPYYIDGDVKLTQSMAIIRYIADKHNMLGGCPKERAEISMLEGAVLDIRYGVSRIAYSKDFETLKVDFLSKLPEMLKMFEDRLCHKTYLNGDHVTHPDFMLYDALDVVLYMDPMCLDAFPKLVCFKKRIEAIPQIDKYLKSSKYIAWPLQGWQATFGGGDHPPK

B1: histidine-tagged KIAA1006 C-terminal truncated polypeptide (1-1157AA) (other)
chain: HHHHHHMKKFNFRKVLDGLTASSPGSGSSSGSNSGGGAGSGSVHPAGTAGVLREEIQETLTSEYFQICKTVRHGFPHQPTALAFDPVQKILAIGTRTGAIRILGRPGVDCYCQHESGAAVLQLQFLINEGALVSASSDDTLHLWNLRQKRPAILHSLKFNRERITYCHLPFQSKWLYVGTERGNTHIVNIESFILSGYVIMWNKAIELSTKTHPGPVVHLSDSPRDEGKLLIGYENGTVVFWDLKSKRAELRVYYDEAIHSIDWHHEGKQFMCSHSDGSLTLWNLKSPSRPFQTTIPHGKSQREGRKSESCKPILKVEYKTCKNSEPFIIFSGGLSYDKACRRPSLTIMHGKAITVLEMDHPIVEFLTLCETPYPNEFQEPYAVVVLLEKDLIVVDLTQSNFPIFENPYPMDIHESPVTCTAYFADCPPDLILVLYSIGVKHKKQGYSNKEWPISGGAWNLGAQTYPEIIITGHADGSIKFWDASAITLQMLYKLKTSKVFEKQKVGEGKQTCEIVEEDPFAIQMIYWCPESRIFCVSGVSAYVIIYKFSRHEITTEIVSLEVRLQYDVEDIITPEPETSPPFPDLSAQLPSSRSLSGSTNTVASEGVTKDSIPCLNVKTRPVRMPPGYQAELVIQLVWVDGEPPQQITSLAVSSAYGIVAFGNCNGLAVVDFIQKTVLLSMGTIDLYRSSDLYQRQPRSPRKNKQFIADNFCMRGLSNFYPDLTKRIRTSYQSLTELNDSPVPLELERCKSPTSDHVNGHCTSPTSQSCSSGKRLSSADVSKVNRWGPGRPPFRKAQSAACMEISLPVTTEENRENSYNRSRSSSISSIDKDSKEAITALYFMDSFARKNDSTISPCLFVGTSLGMVLIISLNLPLADEQRFTEPVMVLPSGTFLSLKGAVLTFSCMDRMGGLMQPPYEVWRDPNNIDENEKSWRRKVVMNSSSASQEIGDHQYTIICSEKQAKVFSLPSQTCLYVHNITETSFILQANVVVMCSSACLACFCANGHIMIMSLPSLRPMLDVNYLPLTDMRIARTFCFTNEGQALYLVSPTEIQRLTYSQEMCDNLQDMLGDLFTPIETPEAQNRGFLKGLFGGSGQTFDREELFGEASAGKASRSLAQHIPGPGSIEGMKGAAGGVMGELTRARIALDERGQRLGELEEKT
notes: Expressed in sf9 insect cells by baculovirus and purified on cobalt resin; The junction of the tag is as noted for m1; also called C-terminal truncated product; C-terminal truncation product of KIAA1006 polypeptide
- binding result: no binding
